Data on eight molecules can be found in patent publication US7494767 (FUNCTIONAL GENETICS, dated 2009).

First the molecules themselves.
B2: GAL4 DNA-binding domain-p1-p6 fusion protein (other)
chain: MKLLSSIEQACDICRLKKLKCSKEKPKCAKCLKNNWECRYSPKTKRSPLTRAHLTEVESRLERLEQLFLLIFPREDLDMILKMDSLQDIKALLTGLFVQDNVNKDAVTDRLASVETDMPLTLRQHRISATSSSEESSNKGQRQLTVSGKIWPSYKGRPGNFLQSRPEPTAPPFLQSRPEPTAPPEESFRSGVETTTPPQKQEPIDKELYPLTSLRSLFGNDPSSQ
notes: also called pGBT9-p1p6; Gag^p6

Assay [1] concerns the target B2. As to the kind of experiment: yeast 2-hybrid, β-galactosidase; Tsg101 variant with p1-p6.
Assay [2] concerns the target T1, GAL4 activation domain-Tsg101 N-terminal 311-residue fragment (yeast; human, UniProt Q99816 1-311).
T1 construct: also called N-311
T1 sequence: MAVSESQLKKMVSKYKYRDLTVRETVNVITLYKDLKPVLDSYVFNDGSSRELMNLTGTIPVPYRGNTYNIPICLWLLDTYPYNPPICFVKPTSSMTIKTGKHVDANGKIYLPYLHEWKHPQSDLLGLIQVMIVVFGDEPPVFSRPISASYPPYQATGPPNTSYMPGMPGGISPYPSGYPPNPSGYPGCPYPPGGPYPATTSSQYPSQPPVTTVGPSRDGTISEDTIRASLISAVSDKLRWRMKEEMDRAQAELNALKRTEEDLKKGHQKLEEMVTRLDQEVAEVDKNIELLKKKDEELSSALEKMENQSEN
Briefly: yeast 2-hybrid.

The target of assay [3] is T2, GAL4 activation domain-Tsg101 fragment from aa139 to the C-terminus (yeast; human, UniProt Q99816 139-390).
T2 construct: also called 139-C
T2 sequence: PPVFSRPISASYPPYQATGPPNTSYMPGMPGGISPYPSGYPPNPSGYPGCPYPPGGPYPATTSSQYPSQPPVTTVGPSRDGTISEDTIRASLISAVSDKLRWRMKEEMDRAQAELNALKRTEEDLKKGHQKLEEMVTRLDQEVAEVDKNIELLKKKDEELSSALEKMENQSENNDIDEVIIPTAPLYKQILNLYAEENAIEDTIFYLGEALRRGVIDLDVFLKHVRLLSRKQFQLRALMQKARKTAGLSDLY
As to the kind of experiment: yeast 2-hybrid.

Assay [4] concerns the target T3, GAL4 activation domain-Tsg101 fusion protein (wild-type human Tsg101) (yeast; human, UniProt Q99816 1-390).
T3 construct: also called hTsg101; product of the human tumor susceptibility gene Tsg101
T3 sequence: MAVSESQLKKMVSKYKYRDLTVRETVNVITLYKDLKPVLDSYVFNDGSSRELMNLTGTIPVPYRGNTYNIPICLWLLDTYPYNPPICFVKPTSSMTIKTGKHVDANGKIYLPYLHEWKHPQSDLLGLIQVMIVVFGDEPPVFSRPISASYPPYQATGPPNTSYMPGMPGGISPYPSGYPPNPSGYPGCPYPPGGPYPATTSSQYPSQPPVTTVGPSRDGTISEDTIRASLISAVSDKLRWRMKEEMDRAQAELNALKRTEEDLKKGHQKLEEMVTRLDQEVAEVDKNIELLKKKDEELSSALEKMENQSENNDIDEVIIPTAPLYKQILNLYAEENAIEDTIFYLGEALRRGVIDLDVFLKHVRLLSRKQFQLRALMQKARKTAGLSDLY
As to the kind of experiment: yeast 2-hybrid, LacZ reporter.

Assay [5] addresses T3, GAL4 activation domain-Tsg101 fusion …. Briefly: yeast 2-hybrid, β-galactosidase; p1-p6 variant with Tsg101.
Assay [6] has as its target B2. As to the kind of experiment: yeast 2-hybrid.

B1: GAL4 activation domain-Tsg101 with Ala for 149Ser-Tyr150 (other)
chain: MAVSESQLKKMVSKYKYRDLTVRETVNVITLYKDLKPVLDSYVFNDGSSRELMNLTGTIPVPYRGNTYNIPICLWLLDTYPYNPPICFVKPTSSMTIKTGKHVDANGKIYLPYLHEWKHPQSDLLGLIQVMIVVFGDEPPVFSRPISAAAPPYQATGPPNTSYMPGMPGGISPYPSGYPPNPSGYPGCPYPPGGPYPATTSSQYPSQPPVTTVGPSRDGTISEDTIRASLISAVSDKLRWRMKEEMDRAQAELNALKRTEEDLKKGHQKLEEMVTRLDQEVAEVDKNIELLKKKDEELSSALEKMENQSENNDIDEVIIPTAPLYKQILNLYAEENAIEDTIFYLGEALRRGVIDLDVFLKHVRLLSRKQFQLRALMQKARKTAGLSDLY
notes: also called mutation of 149Ser-Tyr150
Take B1: in assay [1], the binding result is “binds”.

For the molecule B2, the binding result in assay [2] was “binds”; in assay [3], “no binding”; in assay [4], “binds”.

B3: GAL4 DNA-binding domain-p1-p6 K493R (other)
chain: MKLLSSIEQACDICRLKKLKCSKEKPKCAKCLKNNWECRYSPKTKRSPLTRAHLTEVESRLERLEQLFLLIFPREDLDMILKMDSLQDIKALLTGLFVQDNVNKDAVTDRLASVETDMPLTLRQHRISATSSSEESSNKGQRQLTVSGKIWPSYKGRPGNFLQSRPEPTAPPFLQSRPEPTAPPEESFRSGVETTTPPQKQEPIDRELYPLTSLRSLFGNDPSSQ
Consider B3, for which the binding result in assay [5] is given as “binds”.

B4: GAL4 DNA-binding domain-p1-p6 K487,493R (other)
chain: MKLLSSIEQACDICRLKKLKCSKEKPKCAKCLKNNWECRYSPKTKRSPLTRAHLTEVESRLERLEQLFLLIFPREDLDMILKMDSLQDIKALLTGLFVQDNVNKDAVTDRLASVETDMPLTLRQHRISATSSSEESSNKGQRQLTVSGKIWPSYKGRPGNFLQSRPEPTAPPFLQSRPEPTAPPEESFRSGVETTTPPQRQEPIDRELYPLTSLRSLFGNDPSSQ
Regarding B4, in assay [5], the binding result is listed as “binds”.

B5: GAL4 activation domain-Tsg101 N-terminal 215-residue fragment (other)
chain: MAVSESQLKKMVSKYKYRDLTVRETVNVITLYKDLKPVLDSYVFNDGSSRELMNLTGTIPVPYRGNTYNIPICLWLLDTYPYNPPICFVKPTSSMTIKTGKHVDANGKIYLPYLHEWKHPQSDLLGLIQVMIVVFGDEPPVFSRPISASYPPYQATGPPNTSYMPGMPGGISPYPSGYPPNPSGYPGCPYPPGGPYPATTSSQYPSQPPVTTVGP
notes: also called N-215
In the case of B5, the binding result in assay [6] is reported as “binds”.

B6: GAL4 activation domain-Tsg101 N-terminal 155-residue fragment (other)
chain: MAVSESQLKKMVSKYKYRDLTVRETVNVITLYKDLKPVLDSYVFNDGSSRELMNLTGTIPVPYRGNTYNIPICLWLLDTYPYNPPICFVKPTSSMTIKTGKHVDANGKIYLPYLHEWKHPQSDLLGLIQVMIVVFGDEPPVFSRPISASYPPYQA
notes: also called N-155
With B6, in assay [6], the binding result is recorded as “binds”.

B7: GAL4 activation domain-Tsg101 fragment 311-C (other)
chain: NNDIDEVIIPTAPLYKQILNLYAEENAIEDTIFYLGEALRRGVIDLDVFLKHVRLLSRKQFQLRALMQKARKTAGLSDLY
In the case of B7, the binding result in assay [6] was “no binding”.

B8: GAL4 activation domain-Tsg101 fragment 241-C (other)
chain: RMKEEMDRAQAELNALKRTEEDLKKGHQKLEEMVTRLDQEVAEVDKNIELLKKKDEELSSALEKMENQSENNDIDEVIIPTAPLYKQILNLYAEENAIEDTIFYLGEALRRGVIDLDVFLKHVRLLSRKQFQLRALMQKARKTAGLSDLY
Regarding B8, the binding result in assay [6] was “no binding”.
